Molecular target: T1, Prostate-specific membrane antigen (Homo sapiens, UniProt Q04609)
T1 construct: also called PSMA; glutamate carboxypeptidase II; source: on PSMA-positive PC3-PIP cells
Assay: flow cytometry on cells; PSMA-positive PC3-PIP cells (PC3 as negative control) mixed with 5-fold dilution series of the construct, 20 μL, 15 min at 4°C; 5D3-CP33 detected by anti-Strep tag antibody and Alexa Fluor 647 secondary, ch5D3 by anti-human Alexa Fluor 647 secondary; KD by non-linear regression
Settings: one partner purified

T1 sequence (Q04609 whole entry): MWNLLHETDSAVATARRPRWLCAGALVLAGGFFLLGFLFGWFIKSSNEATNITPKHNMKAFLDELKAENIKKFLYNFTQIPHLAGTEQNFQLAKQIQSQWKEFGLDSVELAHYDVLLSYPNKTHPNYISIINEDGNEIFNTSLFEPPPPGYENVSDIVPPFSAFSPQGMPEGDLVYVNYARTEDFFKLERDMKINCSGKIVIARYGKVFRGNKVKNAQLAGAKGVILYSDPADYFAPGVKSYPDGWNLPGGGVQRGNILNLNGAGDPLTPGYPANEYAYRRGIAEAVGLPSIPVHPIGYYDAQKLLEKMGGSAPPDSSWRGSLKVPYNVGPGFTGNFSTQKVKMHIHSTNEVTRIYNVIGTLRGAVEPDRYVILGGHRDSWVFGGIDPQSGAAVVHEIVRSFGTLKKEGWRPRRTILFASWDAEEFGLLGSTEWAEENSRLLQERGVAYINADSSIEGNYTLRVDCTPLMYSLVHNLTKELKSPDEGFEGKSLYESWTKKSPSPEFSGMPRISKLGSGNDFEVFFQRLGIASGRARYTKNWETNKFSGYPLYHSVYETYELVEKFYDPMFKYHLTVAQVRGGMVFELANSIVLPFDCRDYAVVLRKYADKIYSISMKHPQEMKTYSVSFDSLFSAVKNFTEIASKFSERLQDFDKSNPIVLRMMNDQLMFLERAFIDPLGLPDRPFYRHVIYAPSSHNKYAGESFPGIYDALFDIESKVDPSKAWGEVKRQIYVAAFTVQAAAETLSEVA

Kd: 3.4 nM
B1: 5D3-CP33 bispecific monocyte engager (5D3-scFv HL fused to the N-terminus of CP33) (bispecific antibody, V domains shown)
VH: EVQLQQSGPELVKPGASVKISCKTSGYAFNTSWMNWVKQRPGQGLEWIGRIYPGDGDTNYNGKFKGKATLTADKSSSTAHMHLSSLTSVDSAVYFCARGEWYLYYFDYWGQGTTLTVSS
VL: DIQMTQTTSSLSASLGDRVTISCSASQGINNFLTWYQQKPDGTLKLLIYYTSSLHSGVPSRFSGSGSGTDYSLTIRNLEPEDIATYYCQQYSNLPFTFGGGTKVEIK
notes: VH of the anti-PSMA antibody 5D3 (scFv HL, heavy then light); linker of the 5D3 scFv HL; VL of the anti-PSMA antibody 5D3; The construct has the BiP secretion signal at its N-terminus (vector pMT/BiP/V5-HisA); About 35 kDa; also called 5D3-CP33 fusion; 5D3-scFv-CP33; not shown: SA-strep II, C-terminal, kept
